Assay results from US12410262B2, “Peptide conjugates of cytotoxins as therapeutics” (Cybrexa 2, Inc., priority 2019, dated 2025).

How the values were obtained:
[1] = Glutathione cleavage study; assay type: in vitro ADME; settings: for remaining at 4 h, 100 µM / remaining at 24 h, 100 µM: Tris buffer with 10 mM glutathione, Glutathione Challenge (10 mM), 100 μM conjugate, Tris pH 7.5, 37° C.
Description: A 20 mM stock of conjugate was prepared in 100% DMSO. The stocks were subsequently diluted in 100 mM Tris, pH 7.5, to yield an intermediate dilution of 500 μM followed by an additional dilution of 1:5 in 100 mM Tris, pH 7.5 to give a final concentration of 100 μM of conjugate. 100 mM glutathione was prepared immediately prior to use in H2O and diluted 1:10 in challenge samples for a final glutathione challenge concentration of 10 mM. Samples were mixed by inversion and incubated at 37° C. for up to 24 hrs. […]
(§1) Samples were thawed and extracted as follows: 8 μL of 25% phosphoric acid followed by 117 μL of 100% acetonitrile/0.1% TFA were added to each sample, mixed and centrifuged at 13000×G for 10 minutes. The supernatant was pipetted into 0.2 mL HPLC vials and placed on a Perkin Elmer Flexar HPLC autosampler. The following table summarizes HPLC conditions:
Data was analyzed by calculating the percentage reduction of compound (area of retention time peak of […] conjugate/area of retention time peak of conjugate at time 0)×100.

HCT116 = experiment: cells; assay type: cell-based, human; settings: 96 h
Description: Cells were plated in 96 well black walled-clear bottom plates (Griener), DLD-1 WT cells at 2500 cells per well, FaDu, and HeLa cells at 5000 cells per well, and HCT116 at 3000 cells per well, in growth media containing 10% FBS. Cells were allowed to adhere at room temperature for 60 minutes before returning to a 37 C, 5% CO2 incubator. After 24 hours, media was removed and replaced with fresh growth media containing various drug concentrations. Each drug concentration was added in triplicate. Non-drug treated controls contained growth media only. Cells were returned to the incubator. Ninety-six hours after addition of drug, cells were fixed with 4% paraformaldehyde for 20 minutes and stained with Hoechst at 1 ug/mL. The plates were imaged on a Cytation 5 auto imager (BioTek) and cells were counted using CellProfiler (http://cellprofiler.org). The percent cell growth delay was calculated and data plotted using GraphPad Prism

Plasma stability studies = assay type: in vitro ADME; settings: rat plasma, 100 μM conjugate, 37° C.
Description: A 20 mM stock of conjugate was prepared in 100% DMSO. The stocks were subsequently diluted in 100 mM Tris, pH 7.5 to yield an intermediate dilution of 500 μM and then diluted 1:5 directly into rat plasma to yield a final concentration of 100 μM of conjugate. Samples were mixed by inversion and incubated at 37° C. for up to 24 h. 50 μL samples were aliquoted into siliconized microfuge tubes at time 0, 4, and 24 h and immediately frozen at −80° C.
as §1, with “100% Acetonitrile/0.1%” for “100% acetonitrile/0.1%”, “TFA was” for “TFA were”
Data was analyzed by calculating the percentage reduction of compound (area of retention time peak of incubated conjugate/area of retention time peak of conjugate at time 0)×100.

| SMILES | remaining at 4 h, 100 µM [1] [%] | remaining at 24 h, 100 µM [1] [%] | IC50 (HCT116) [nM] | remaining at 4 h, 100 µM (Plasma stability studies) [%] | remaining at 24 h, 100 µM (Plasma stability studies) [%] | degradation on glutathione exposure (FIG. 10) ([1]; 10 mM glutathione over 16 h) |
| --- | --- | --- | --- | --- | --- | --- |
| CC[C@@]1(O)C(=O)OCc2c1cc1n(c2=O)Cc2c-1nc1cc(F)c(C)c3c1c2[C@@H](NC(=O)O[C@@H]1CCc2ccccc2[C@H]1SSC[C@H](NC(=O)[C@H](Cc1c[nH]c2ccccc12)NC(=O)[C@H](CC(C)C)NC(=O)[C@H](CC(C)C)NC(=O)[C@H](CC(=O)O)NC(=O)[C@H](CC(C)C)NC(=O)[C@H](CC(C)C)NC(=O)[C@H](CC(C)C)NC(=O)[C@@H](NC(=O)[C@H](CC(=O)O)NC(=O)[C@@H](NC(=O)[C@@H]1CCCN1C(=O)[C@H](Cc1ccccc1)NC(=O)[C@H](CC(C)C)NC(=O)[C@H](CC(C)C)NC(=O)[C@H](CC(=O)O)NC(=O)[C@H](CC(C)C)NC(=O)[C@H](Cc1ccc(O)cc1)NC(=O)[C@H](C)NC(=O)[C@H](CCCNC(=N)N)NC(=O)[C@H](Cc1c[nH]c2ccccc12)NC(=O)[C@@H]1CCCN1C(=O)[C@H](CC(N)=O)NC(=O)[C@H](CCC(N)=O)NC(=O)[C@H](CC(=O)O)NC(=O)[C@H](CC(=O)O)NC(=O)[C@H](C)N)[C@@H](C)O)[C@@H](C)O)C(=O)NCC(=O)O)CC3 [Compound 25] | 42 | 4.1 | 2.9 | 103 | 104 | – |
| CC[C@@]1(O)C(=O)OCc2c1cc1n(c2=O)Cc2c-1nc1cc(F)c(C)c3c1c2[C@@H](NC(=O)O[C@H]1COC[C@@H]1SSC[C@H](NC(=O)[C@H](Cc1c[nH]c2ccccc12)NC(=O)[C@H](CC(C)C)NC(=O)[C@H](CC(C)C)NC(=O)[C@H](CC(=O)O)NC(=O)[C@H](CC(C)C)NC(=O)[C@H](CC(C)C)NC(=O)[C@H](CC(C)C)NC(=O)[C@@H](NC(=O)[C@H](CC(=O)O)NC(=O)[C@@H](NC(=O)[C@@H]1CCCN1C(=O)[C@H](Cc1ccccc1)NC(=O)[C@H](CC(C)C)NC(=O)[C@H](CC(C)C)NC(=O)[C@H](CC(=O)O)NC(=O)[C@H](CC(C)C)NC(=O)[C@H](Cc1ccc(O)cc1)NC(=O)[C@H](C)NC(=O)[C@H](CCCNC(=N)N)NC(=O)[C@H](Cc1c[nH]c2ccccc12)NC(=O)[C@@H]1CCCN1C(=O)[C@H](CC(N)=O)NC(=O)[C@H](CCC(N)=O)NC(=O)[C@H](CC(=O)O)NC(=O)[C@H](CC(=O)O)NC(=O)[C@H](C)N)[C@@H](C)O)[C@@H](C)O)C(=O)NCC(=O)O)CC3 [Compound 17] | 3.4 | 1.7 | 0.7 | 107 | 105 | – |
| CC[C@@]1(O)C(=O)OCc2c1cc1n(c2=O)Cc2c-1nc1cc(F)c(C)c3c1c2[C@@H](NC(=O)O[C@H]1CCCCC[C@@H]1SSC[C@H](NC(=O)[C@H](Cc1c[nH]c2ccccc12)NC(=O)[C@H](CC(C)C)NC(=O)[C@H](CC(C)C)NC(=O)[C@H](CC(=O)O)NC(=O)[C@H](CC(C)C)NC(=O)[C@H](CC(C)C)NC(=O)[C@H](CC(C)C)NC(=O)[C@@H](NC(=O)[C@H](CC(=O)O)NC(=O)[C@@H](NC(=O)[C@@H]1CCCN1C(=O)[C@H](Cc1ccccc1)NC(=O)[C@H](CC(C)C)NC(=O)[C@H](CC(C)C)NC(=O)[C@H](CC(=O)O)NC(=O)[C@H](CC(C)C)NC(=O)[C@H](Cc1ccc(O)cc1)NC(=O)[C@H](C)NC(=O)[C@H](CCCNC(=N)N)NC(=O)[C@H](Cc1c[nH]c2ccccc12)NC(=O)[C@@H]1CCCN1C(=O)[C@H](CC(N)=O)NC(=O)[C@H](CCC(N)=O)NC(=O)[C@H](CC(=O)O)NC(=O)[C@H](CC(=O)O)NC(=O)[C@H](C)N)[C@@H](C)O)[C@@H](C)O)C(=O)NCC(=O)O)CC3 [Compound 23] | 61.4 | 13.2 | 11.9 | 92 | 92 | – |
| CC[C@@]1(O)C(=O)OCc2c1cc1n(c2=O)Cc2c-1nc1cc(F)c(C)c3c1c2[C@@H](NC(=O)O[C@H]1CCC[C@@H]1SSC[C@H](NC(=O)[C@H](Cc1c[nH]c2ccccc12)NC(=O)[C@H](CC(C)C)NC(=O)[C@H](CC(C)C)NC(=O)[C@H](CC(=O)O)NC(=O)[C@H](CC(C)C)NC(=O)[C@H](CC(C)C)NC(=O)[C@H](CC(C)C)NC(=O)[C@@H](NC(=O)[C@H](CC(=O)O)NC(=O)[C@@H](NC(=O)[C@@H]1CCCN1C(=O)[C@H](Cc1ccccc1)NC(=O)[C@H](CC(C)C)NC(=O)[C@H](CC(C)C)NC(=O)[C@H](CC(=O)O)NC(=O)[C@H](CC(C)C)NC(=O)[C@H](Cc1ccc(O)cc1)NC(=O)[C@H](C)NC(=O)[C@H](CCCNC(=N)N)NC(=O)[C@H](Cc1c[nH]c2ccccc12)NC(=O)[C@@H]1CCCN1C(=O)[C@H](CC(N)=O)NC(=O)[C@H](CCC(N)=O)NC(=O)[C@H](CC(=O)O)NC(=O)[C@H](CC(=O)O)NC(=O)[C@H](C)N)[C@@H](C)O)[C@@H](C)O)C(=O)NCC(=O)O)CC3 [Compound 15] | 19.4 | 8.3 | 1.7 | 105 | 103 | – |
| CC[C@@]1(O)C(=O)OCc2c1cc1n(c2=O)Cc2c-1nc1cc(F)c(C)c3c1c2[C@@H](NC(=O)CCSSC[C@H](NC(=O)[C@H](Cc1c[nH]c2ccccc12)NC(=O)[C@H](CC(C)C)NC(=O)[C@H](CC(C)C)NC(=O)[C@H](CC(=O)O)NC(=O)[C@H](CC(C)C)NC(=O)[C@H](CC(C)C)NC(=O)[C@H](CC(C)C)NC(=O)[C@@H](NC(=O)[C@H](CC(=O)O)NC(=O)[C@@H](NC(=O)[C@@H]1CCCN1C(=O)[C@H](Cc1ccccc1)NC(=O)[C@H](CC(C)C)NC(=O)[C@H](CC(C)C)NC(=O)[C@H](CC(=O)O)NC(=O)[C@H](CC(C)C)NC(=O)[C@H](Cc1ccc(O)cc1)NC(=O)[C@H](C)NC(=O)[C@H](CCCNC(=N)N)NC(=O)[C@H](Cc1c[nH]c2ccccc12)NC(=O)[C@@H]1CCCN1C(=O)[C@H](CC(N)=O)NC(=O)[C@H](CCC(N)=O)NC(=O)[C@H](CC(=O)O)NC(=O)[C@H](CC(=O)O)NC(=O)[C@H](C)N)[C@@H](C)O)[C@@H](C)O)C(=O)NCC(=O)O)CC3 [Compound 29] | 3.1 | 5.9 | 69 | 116 | 110 | released much faster than Compound 11 |
| CC[C@@]1(O)C(=O)OCc2c1cc1n(c2=O)Cc2c-1nc1cc(F)c(C)c3c1c2[C@@H](NC(=O)OC[C@H](SSC[C@H](NC(=O)[C@H](Cc1c[nH]c2ccccc12)NC(=O)[C@H](CC(C)C)NC(=O)[C@H](CC(C)C)NC(=O)[C@H](CC(=O)O)NC(=O)[C@H](CC(C)C)NC(=O)[C@H](CC(C)C)NC(=O)[C@H](CC(C)C)NC(=O)[C@@H](NC(=O)[C@H](CC(=O)O)NC(=O)[C@@H](NC(=O)[C@@H]1CCCN1C(=O)[C@H](Cc1ccccc1)NC(=O)[C@H](CC(C)C)NC(=O)[C@H](CC(C)C)NC(=O)[C@H](CC(=O)O)NC(=O)[C@H](CC(C)C)NC(=O)[C@H](Cc1ccc(O)cc1)NC(=O)[C@H](C)NC(=O)[C@H](CCCNC(=N)N)NC(=O)[C@H](Cc1c[nH]c2ccccc12)NC(=O)[C@@H]1CCCN1C(=O)[C@H](CC(N)=O)NC(=O)[C@H](CCC(N)=O)NC(=O)[C@H](CC(=O)O)NC(=O)[C@H](CC(=O)O)NC(=O)[C@H](C)N)[C@@H](C)O)[C@@H](C)O)C(=O)NCC(=O)O)C(C)C)CC3 [Compound 28] | 40.5 | 0 | 1.1 | 106 | 106 | – |
